Test results reported in the supplement of paper PMC7877785.
± gives the uncertainty stated by the source.

Test: self-splicing fitness, log relative to wild type (ln ratio); higher = more splicing; Tetrahymena group I intron in knt gene, E. coli kanamycin selection, DiMSum; sequences stand for … in CUCUCU…GGAGGGAAAAGUUAUCAGGCAUGCACCUGGUAGCUAGUCUUUAAACCAAUAGAUUGCAUCGGUUUAAAAGGCAAGACCGUCAAAUUGCGGGAAAGGGGUCAACAGCCGUUCAGUACCAAGUCUCAGGGGAAACUUUGAGAUGGCCUUGCAAAGGGUAUGGUAAUAAGCUGACGGACAUGGUCCUAACCACGCAGCCAAGUCCUAAGUCAACAGAUCUUCUGUUGAUAUGGAUGCAGUUCACAGACUAAAUGUCGGUCGGGGAAGAUGUAUUCUUCUCAUAAGAUAUAGUCGGACCUCUCCUUAAUGGGAGCUAGCGGAUGAAGUGAUGCAACACUGGAGCCGCUGGGAACUAAUUUGUAUGCGAAAGUAUAUUGAUUAGUUUUGGAGUACUCGUGGUCG
Procedure, shortened: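 DiMSum derived fitness as the error-weighted combination of fold changes across replicates, kanamycin versus no kanamycin, normalised to wild type. E. coli BL21(DE3) held the library, which randomised all eight P1ex-region intron nucleotides within the knt kanamycin-resistance gene on pET-22b(+). Six replicate transformations grew overnight at 37°C or 30°C on LB agar with or without 25 μg/mL kanamycin, also containing 100 μg/mL carbenicillin, 50 μM IPTG and 0.2% rhamnose, and pooled colonies were amplicon-sequenced on an Illumina HiSeq 2500.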

## CCACAGCAAUAUUACGAAUU
30 °C
  self-splicing fitness (ln): -3.64 ± 0.18
37 °C
  self-splicing fitness (ln): -2.39 ± 0.17

## CCACAGCAAUAUUACGACCG
30 °C
  self-splicing fitness (ln): -0.115 ± 0.064
37 °C
  self-splicing fitness (ln): -0.00245 ± 0.083

## CCACAGCAAUAUUACGACUA
30 °C
  self-splicing fitness (ln): -3.08 ± 0.25
37 °C
  self-splicing fitness (ln): -2.88 ± 0.29

## CCACAGCAAUAUUACGAUAU
30 °C
  self-splicing fitness (ln): -3.48 ± 0.2
37 °C
  self-splicing fitness (ln): -2.01 ± 0.15

## CCACAGCAAUAUUACGCAAC
30 °C
  self-splicing fitness (ln): -2.45 ± 0.36
37 °C
  self-splicing fitness (ln): -1.79 ± 0.33

## CCACAGCAAUAUUACGCAUG
30 °C
  self-splicing fitness (ln): -1.64 ± 0.073
37 °C
  self-splicing fitness (ln): -0.648 ± 0.067

## CCACAGCAAUAUUACGCUGC
30 °C
  self-splicing fitness (ln): -3.06 ± 0.17
37 °C
  self-splicing fitness (ln): -2.72 ± 0.28

## CCACAGCAAUAUUACGCUUU
30 °C
  self-splicing fitness (ln): -4.05 ± 0.25
37 °C
  self-splicing fitness (ln): -2.18 ± 0.19

## CCACAGCAAUAUUACGGAUG
30 °C
  self-splicing fitness (ln): -1.97 ± 0.082
37 °C
  self-splicing fitness (ln): -1.19 ± 0.1

## CCACAGCAAUAUUACGGAUU
30 °C
  self-splicing fitness (ln): -3.49 ± 0.11
37 °C
  self-splicing fitness (ln): -3.12 ± 0.15

## CCACAGCAAUAUUACGGCAG
30 °C
  self-splicing fitness (ln): -1.16 ± 0.072
37 °C
  self-splicing fitness (ln): -0.579 ± 0.085

## CCACAGCAAUAUUACGGCGU
30 °C
  self-splicing fitness (ln): -3.24 ± 0.21
37 °C
  self-splicing fitness (ln): -2.75 ± 0.31

## CCACAGCAAUAUUACGGGAU
30 °C
  self-splicing fitness (ln): -4.56 ± 0.26
37 °C
  self-splicing fitness (ln): -2.33 ± 0.15

## CCACAGCAAUAUUACGGGGU
30 °C
  self-splicing fitness (ln): -3.71 ± 0.098
37 °C
  self-splicing fitness (ln): -2.53 ± 0.11

## CCACAGCAAUAUUACGGUCC
30 °C
  self-splicing fitness (ln): -2.75 ± 0.32
37 °C
  self-splicing fitness (ln): -2.32 ± 0.32

## CCACAGCAAUAUUACGGUGA
30 °C
  self-splicing fitness (ln): -0.943 ± 0.06
37 °C
  self-splicing fitness (ln): -0.339 ± 0.062

## CCACAGCAAUAUUACGGUGC
30 °C
  self-splicing fitness (ln): -4.03 ± 0.19
37 °C
  self-splicing fitness (ln): -2.97 ± 0.2

## CCACAGCAAUAUUACGGUGU
30 °C
  self-splicing fitness (ln): -2.98 ± 0.12
37 °C
  self-splicing fitness (ln): -3.03 ± 0.2

## CCACAGCAAUAUUACGUCCU
30 °C
  self-splicing fitness (ln): -3.44 ± 0.27
37 °C
  self-splicing fitness (ln): -1.76 ± 0.19

## CCACAGCAAUAUUACGUGCU
30 °C
  self-splicing fitness (ln): -3.61 ± 0.17
37 °C
  self-splicing fitness (ln): -2.88 ± 0.17

## CCACAGCAAUAUUACGUGGU
30 °C
  self-splicing fitness (ln): -4.13 ± 0.14
37 °C
  self-splicing fitness (ln): -3.65 ± 0.17

## CCACAGCAAUAUUACGUUCC
30 °C
  self-splicing fitness (ln): -4.24 ± 0.24
37 °C
  self-splicing fitness (ln): -2.84 ± 0.27

## CCACAGCAAUAUUACGUUUC
30 °C
  self-splicing fitness (ln): -4.16 ± 0.22
37 °C
  self-splicing fitness (ln): -2.44 ± 0.24

## CCAGAGCAAUAUUACGAAGG
30 °C
  self-splicing fitness (ln): -3.47 ± 0.19
37 °C
  self-splicing fitness (ln): -1.92 ± 0.22

## CCAGAGCAAUAUUACGACUA
30 °C
  self-splicing fitness (ln): -2.95 ± 0.28
37 °C
  self-splicing fitness (ln): -2.47 ± 0.38

## CCAGAGCAAUAUUACGAGCC
37 °C
  self-splicing fitness (ln): -1.84 ± 0.42

## CCAGAGCAAUAUUACGAGGC
30 °C
  self-splicing fitness (ln): -2.82 ± 0.38
37 °C
  self-splicing fitness (ln): -1.34 ± 0.41

## CCAGAGCAAUAUUACGAGUA
30 °C
  self-splicing fitness (ln): -2.97 ± 0.23
37 °C
  self-splicing fitness (ln): -3.39 ± 0.28

## CCAGAGCAAUAUUACGAUAC
30 °C
  self-splicing fitness (ln): -2.7 ± 0.2
37 °C
  self-splicing fitness (ln): -1.71 ± 0.21

## CCAGAGCAAUAUUACGAUGA
30 °C
  self-splicing fitness (ln): -1.88 ± 0.14
37 °C
  self-splicing fitness (ln): -0.518 ± 0.11

## CCAGAGCAAUAUUACGCACG
30 °C
  self-splicing fitness (ln): -2.06 ± 0.22
37 °C
  self-splicing fitness (ln): 0.34 ± 0.17

## CCAGAGCAAUAUUACGCUGC
30 °C
  self-splicing fitness (ln): -2.85 ± 0.27
37 °C
  self-splicing fitness (ln): -1.28 ± 0.25

## CCAGAGCAAUAUUACGCUUA
30 °C
  self-splicing fitness (ln): -3.34 ± 0.43

## CCAGAGCAAUAUUACGGAUU
30 °C
  self-splicing fitness (ln): -3.05 ± 0.15
37 °C
  self-splicing fitness (ln): -2.38 ± 0.16

## CCAGAGCAAUAUUACGGCUC
30 °C
  self-splicing fitness (ln): -2.69 ± 0.23
37 °C
  self-splicing fitness (ln): -2.76 ± 0.26

## CCAGAGCAAUAUUACGUAAU
30 °C
  self-splicing fitness (ln): -3.66 ± 0.23
37 °C
  self-splicing fitness (ln): -3.18 ± 0.3

## CCAGAGCAAUAUUACGUACG
30 °C
  self-splicing fitness (ln): -1.46 ± 0.12
37 °C
  self-splicing fitness (ln): -0.669 ± 0.13

## CCAGAGCAAUAUUACGUAGG
30 °C
  self-splicing fitness (ln): -3.25 ± 0.19
37 °C
  self-splicing fitness (ln): -2.6 ± 0.25

## CCAGAGCAAUAUUACGUGUC
30 °C
  self-splicing fitness (ln): -2.88 ± 0.21
37 °C
  self-splicing fitness (ln): -2.29 ± 0.32

## CCAGAGCAAUAUUACGUUUA
30 °C
  self-splicing fitness (ln): -3.95 ± 0.29
37 °C
  self-splicing fitness (ln): -1.78 ± 0.2

## CCAUAGCAAUAUUACGAAAU
30 °C
  self-splicing fitness (ln): -2.98 ± 0.37

## CCAUAGCAAUAUUACGAAGA
30 °C
  self-splicing fitness (ln): -3.41 ± 0.29
37 °C
  self-splicing fitness (ln): -2.91 ± 0.34

## CCAUAGCAAUAUUACGACUC
30 °C
  self-splicing fitness (ln): -3.37 ± 0.32
37 °C
  self-splicing fitness (ln): -2.18 ± 0.28

## CCAUAGCAAUAUUACGAGUC
30 °C
  self-splicing fitness (ln): -4.04 ± 0.19
37 °C
  self-splicing fitness (ln): -2.89 ± 0.21

## CCAUAGCAAUAUUACGAGUG
30 °C
  self-splicing fitness (ln): -1.44 ± 0.092
37 °C
  self-splicing fitness (ln): -0.172 ± 0.097

## CCAUAGCAAUAUUACGCAGA
30 °C
  self-splicing fitness (ln): -2.96 ± 0.21
37 °C
  self-splicing fitness (ln): -2.16 ± 0.24

## CCAUAGCAAUAUUACGCCGA
30 °C
  self-splicing fitness (ln): -1.4 ± 0.26
37 °C
  self-splicing fitness (ln): -1.57 ± 0.42

## CCAUAGCAAUAUUACGCCUA
30 °C
  self-splicing fitness (ln): -2.85 ± 0.27
37 °C
  self-splicing fitness (ln): -2.93 ± 0.35

## CCAUAGCAAUAUUACGCGUU
30 °C
  self-splicing fitness (ln): -3.53 ± 0.23
37 °C
  self-splicing fitness (ln): -2.51 ± 0.24
